From the supplement of paper PMC6757056
± gives the standard deviation of the averaged measurements.

B1: library; a variant is named by its letters at N, in order (parent)
chain: GCUGUCACCGGAAUACCAGCAUCGUCUUGAUGCCCUUGGAAGUCCGGUCUGAUGAGUCCNNNNNGGACGAAACAGC

Tests used:
theophylline [1] = variants of: B1; test: FACS-Seq fitted mean relative fluorescence mCherry/BFP without ligand (log10 relative fluorescence); higher = higher reporter protein expression; settings: HEK293T, ligand present: no
Experimental: (§1)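 Hammerhead (sTRSV) ribozyme switch libraries with a ligand aptamer grafted on stem I and a randomized N4-6 loop II, cloned into the 3' UTR of mCherry and transiently transfected into HEK293T cells; RNA-Seq 72 h post transfection with ligand added 1 h before transfection; RNA read count / plasmid DNA read count normalized to the non-cleaving sTRSVctl (x100), log10; sequences with >100 DNA reads. FACS-Seq: lentiviral library sorted into 6 bins after 48 h ligand, log-normal fit mean of mCherry/BFP scaled to controls. Printed sequences are partial switch sequences.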

theophylline [2] = variants of: B1; test: normalized RNA/DNA level with ligand (relative to sTRSVctl = 100) (log10 (% of sTRSVctl)); higher = less ribozyme self-cleavage, higher mRNA level; settings: ligand concentration (+) RNA-Seq: 5 mM, HEK293T, reporter: mCherry (pCS4076), ligand present: yes
Experimental: as §1

theophylline [3] = variants of: B1; test: normalized RNA/DNA level without ligand (relative to sTRSVctl = 100) (log10 (% of sTRSVctl)); higher = less ribozyme self-cleavage, higher mRNA level; settings: HEK293T, reporter: mCherry (pCS4076), ligand present: no
Experimental: as §1

theophylline [4] = variants of: B1; test: FACS-Seq fitted mean relative fluorescence mCherry/BFP with ligand (log10 relative fluorescence); ligand concentration (+) FACS-Seq: 1 mM; higher = higher reporter protein expression; settings: HEK293T, ligand present: yes
Experimental: as §1

Variant	FACS-Seq fitted mean (log10) (theophylline [1])	normalized RNA/DNA level with ligand (log10) (theophylline [2])	normalized RNA/DNA level without ligand (log10) (theophylline [3])	FACS-Seq fitted mean (log10) (theophylline [4])
CCGUA	0.864 ± 0.056	2 ± 0.099	1.65 ± 0.12	0.992 ± 0.043
CCGUC	0.556 ± 0.018	2.11 ± 0.037	1.93 ± 0.073	0.413 ± 0.034
ACUGG	1 ± 0.065	2.05 ± 0.12	1.91 ± 0.091	0.915 ± 0.066
ACUGU	0.698 ± 0.1	2.027 ± 0.011	1.89 ± 0.087	0.626 ± 0.07
ACUGA	0.423 ± 0.012	1.96 ± 0.19	1.68 ± 0.18	0.613 ± 0.023
ACUGC	0.883 ± 0.038	2.01 ± 0.031	1.95 ± 0.058	0.793 ± 0.067
UGAAU	0.471 ± 0.056	1.94 ± 0.057	1.77 ± 0.15	0.732 ± 0.045
UGAAC	1.07 ± 0.11	1.97 ± 0.06	1.84 ± 0.036	0.983 ± 0.022
UCGGU	0.776 ± 0.2	2.084 ± 0.0052	1.8 ± 0.16	0.68 ± 0.021
UGACU	1.21 ± 0.077	1.9948 ± 0.0009	1.87 ± 0.022	1.22 ± 0.12
UGACG	0.444 ± 0.13	1.977 ± 0.0053	1.89 ± 0.031	0.53 ± 0.076
UGACA	0.298 ± 0.03	1.93 ± 0.051	1.52 ± 0.048	0.527 ± 0.05
UCUUU	0.989 ± 0.015	2.019 ± 0.0067	1.86 ± 0.14	1.04 ± 0.1
UCUUG	0.933 ± 0.1	1.94 ± 0.18	1.94 ± 0.037	1.01 ± 0.025
AGAAC	0.387 ± 0.005	1.9164 ± 0.00023	1.78 ± 0.12	0.507 ± 0.016
AGAAA	-0.278 ± 0.17	1.853 ± 0.0095	1.12 ± 0.042	0.515 ± 0.022
AGAAG	0.448 ± 0.033	1.93 ± 0.025	1.61 ± 0.17	0.576 ± 0.014
AGCCU	0.951 ± 0.011	1.98 ± 0.023	1.91 ± 0.11	1.06 ± 0.071
AGCCA	0.758 ± 0.027	1.98 ± 0.038	1.857 ± 0.0057	0.919 ± 0.027
AGCCG	0.757 ± 0.026	1.99 ± 0.14	1.93 ± 0.11	0.782 ± 0.054
UCUCC	0.732 ± 0.037	1.93 ± 0.04	1.95 ± 0.023	0.7862 ± 0.0054
UGCAU	1.25 ± 0.16	1.92 ± 0.078	1.853 ± 0.018	1.3 ± 0.1
UGCAC	0.938 ± 0.039	2.04 ± 0.11	2.01 ± 0.022	0.991 ± 0.051
CGAUU	0.31 ± 0.2	1.98 ± 0.13	1.51 ± 0.15	0.579 ± 0.022

Variant	FACS-Seq fitted mean (log10) (theophylline [1])	normalized RNA/DNA level with ligand (log10) (theophylline [2])	normalized RNA/DNA level without ligand (log10) (theophylline [3])	FACS-Seq fitted mean (log10) (theophylline [4])
CGAUC	0.533 ± 0.1	1.927 ± 0.016	1.84 ± 0.089	0.495 ± 0.065
CGAUA	0.099 ± 0.017	1.946 ± 0.014	1.21 ± 0.36	0.491 ± 0.0076
CCGGU	0.937 ± 0.27	1.97 ± 0.064	1.84 ± 0.064	0.944 ± 0.14
CCGGA	0.978 ± 0.089	2.08 ± 0.027	1.9 ± 0.044	1.05 ± 0.15
CCGGC	0.695 ± 0.065	2 ± 0.13	1.97 ± 0.044	0.721 ± 0.011
ACUCA	0.648 ± 0.038	1.97 ± 0.14	1.92 ± 0.076	0.659 ± 0.088
ACUCC	0.767 ± 0.21	2 ± 0.068	1.96 ± 0.026	0.658 ± 0.024
ACUCU	-0.437 ± 0.075	2.01 ± 0.052	1.93 ± 0.075	-0.125 ± 0.13
ACUCG	1.06 ± 0.14	1.95 ± 0.2	1.89 ± 0.11	1.17 ± 0.035
ACCUU	1.31 ± 0.14	2.04 ± 0.038	1.95 ± 0.047	1.27 ± 0.14
UGCUU	0.84 ± 0.14	1.99 ± 0.079	1.95 ± 0.054	0.851 ± 0.037
UCCUU	0.983 ± 0.13	2.011 ± 0.0076	1.94 ± 0.053	1.01 ± 0.082
AGAUG	0.533 ± 0.011	1.9309 ± 0.0011	1.803 ± 0.017	0.4899 ± 0.0023
AGAUU	0.511 ± 0.068	1.99 ± 0.12	1.736 ± 0.01	0.627 ± 0.07
AGAUA	0.67126 ± 0.00023	2.01 ± 0.027	1.61 ± 0.11	0.73474 ± 0.00057
UCGCC	1.03 ± 0.1	2 ± 0.095	1.872 ± 0.014	1.06 ± 0.095
UCGCA	0.556 ± 0.006	1.96 ± 0.055	1.57 ± 0.12	0.806 ± 0.091
UCGCU	0.4314 ± 0.00049	2.03 ± 0.11	1.891 ± 0.0058	0.533 ± 0.055
CGGAU	0.215 ± 0.064	2 ± 0.11	1.65 ± 0.11	0.522 ± 0.046
CGGAA	-0.0214 ± 0.074	1.9 ± 0.055	1.25 ± 0.17	0.354 ± 0.0054
CGGAC	0.877 ± 0.081	1.93 ± 0.024	1.8 ± 0.087	0.793 ± 0.037
ACGUU	0.575 ± 0.11	2.05 ± 0.044	1.79 ± 0.042	0.657 ± 0.051
ACGUC	1.11 ± 0.098	1.99 ± 0.031	1.91 ± 0.038	1.1245 ± 0.0011
ACGUG	0.7349 ± 0.0044	1.99 ± 0.14	1.76 ± 0.033	0.974 ± 0.16

Variant	FACS-Seq fitted mean (log10) (theophylline [1])	normalized RNA/DNA level with ligand (log10) (theophylline [2])	normalized RNA/DNA level without ligand (log10) (theophylline [3])	FACS-Seq fitted mean (log10) (theophylline [4])
ACGUA	0.721 ± 0.11	2.011 ± 0.017	1.62 ± 0.19	0.9207 ± 0.0039
UGAGA	0.307 ± 0.012	1.922 ± 0.0069	1.5 ± 0.13	0.709 ± 0.041
UGAGU	0.6996 ± 0.0034	2.02 ± 0.17	1.86 ± 0.12	0.676 ± 0.013
UGAGC	1.21 ± 0.082	1.9256 ± 8.8e-05	1.98 ± 0.13	1.24 ± 0.12
AGCGA	0.281 ± 0.033	1.99 ± 0.025	1.68 ± 0.058	0.503 ± 0.017
AGCGU	-0.0881 ± 0.074	2.01 ± 0.027	1.82 ± 0.055	0.017 ± 0.14
AGCGC	0.459 ± 0.1	2.058 ± 0.016	1.98 ± 0.047	0.52 ± 0.18
AGAGU	0.387 ± 0.049	2.006 ± 0.008	1.58 ± 0.045	0.442 ± 0.022
AGAGG	0.93 ± 0.038	1.956 ± 0.018	1.8 ± 0.11	0.966 ± 0.08
AGAGA	0.056 ± 0.00013	1.952 ± 0.0099	1.28 ± 0.092	0.603 ± 0.011
AGAGC	0.629 ± 0.05	1.89 ± 0.12	1.81 ± 0.027	0.813 ± 0.051
CGCCC	0.615 ± 0.021	2.01 ± 0.14	2.02 ± 0.04	0.725 ± 0.098
CGCCU	0.291 ± 0.031	2.08 ± 0.074	1.78 ± 0.12	0.38 ± 0.021
UCUGA	0.9 ± 0.11	2.04 ± 0.035	1.89 ± 0.056	0.983 ± 0.1
UCUGU	0.6475 ± 0.0019	2.099 ± 0.014	2.01 ± 0.1	0.6442 ± 0.0018
UCUGG	0.976 ± 0.062	2.057 ± 0.0087	2.01 ± 0.064	1.012 ± 0.0062
UCUGC	0.365 ± 0.16	1.98 ± 0.096	2.02 ± 0.032	0.642 ± 0.034
ACGGC	1.25 ± 0.15	1.97 ± 0.059	1.97 ± 0.067	1.17 ± 0.014
ACGGA	0.425 ± 0.14	1.95 ± 0.02	1.66 ± 0.073	0.602 ± 0.1
ACGGU	0.778 ± 0.062	1.89 ± 0.13	1.7 ± 0.095	1.004 ± 0.0021
CGACA	0.409 ± 0.006	2.012 ± 0.02	1.45 ± 0.061	0.769 ± 0.0091
CGACU	0.265 ± 0.1	2 ± 0.031	1.7 ± 0.14	0.5286 ± 0.0038
CCUUU	0.664 ± 0.036	2.046 ± 0.019	1.85 ± 0.039	0.81 ± 0.074
